Consider 3 substances from US20020197661.

The subject of series [1] is Acetyl-Prolyl-Arginyl-Asparaginyl-Lysyl-aminoacetamide coumarin (Ac-PRNK-ACC).
The test system of series [2] is Ac-PANK-ACC.
Series [3] concerns Ac-PRNR-ACC.
The test system of series [4] is Ac-PRTK-ACC.
Series [5] relates to Ac-PANK-ACC. Nature of the series: single substrate kinetics, fluorogenic ACC release, Skin (β-I) Tryptase.
The subject of series [6] is Acetyl-Prolyl-Arginyl-Asparaginyl-Lysyl-aminoacetamide coumarin (Ac-PRNK-ACC). The description is as above.
Series [7] deals with Ac-PRNR-ACC. The description is as above.
Series [8] has as its system Ac-PRTK-ACC. The series is described as above.
The test system of series [9] is Ac-PANK-ACC. In words: single substrate kinetics, fluorogenic ACC release, Lung (β-II) Tryptase.
The test system of series [10] is Acetyl-Prolyl-Arginyl-Asparaginyl-Lysyl-aminoacetamide coumarin (Ac-PRNK-ACC). The description is as above.
Series [11] concerns Ac-PRNR-ACC. Described as above.
In series [12] the test system is Ac-PRTK-ACC. The series is described as above.

Chain of recombinant human βI-tryptase (chain, as listed by the source): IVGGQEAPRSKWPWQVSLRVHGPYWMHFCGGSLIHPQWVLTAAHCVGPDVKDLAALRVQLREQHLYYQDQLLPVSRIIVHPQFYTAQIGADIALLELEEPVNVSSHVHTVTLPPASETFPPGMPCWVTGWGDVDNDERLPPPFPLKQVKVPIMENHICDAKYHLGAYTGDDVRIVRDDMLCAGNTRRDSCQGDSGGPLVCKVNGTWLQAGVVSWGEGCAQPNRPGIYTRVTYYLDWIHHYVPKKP

“Human alpha-thrombin (Haematologic Technologies, Inc.)”: the “cleavage of the fluorogenic substrate (fluorescence, excitation 355 nm, emission 460 nm)” value in [1] is “Ac-PRNK-ACC (SEQ. ID. NO: 12) is a specific substrate for tryptase in relation to other blood borne serine proteases”.

recombinant human βI-tryptase: the kcat (as a rule, the number of substrate molecules converted per active site and unit of time at saturation) with Ac-PANK-ACC [2] was 19.1 s⁻¹; in series [1] it was 17.8 s⁻¹; in the series on Ac-PRNR-ACC [3], 20.9 s⁻¹; in the series on Ac-PRTK-ACC [4], 18.3 s⁻¹. The kcat/km (s^-1M^-1) in the series with Ac-PANK-ACC [2] came out at 140000 s^-1M^-1; in series [1], 1.23e+06 s^-1M^-1; in the series on Ac-PRNR-ACC [3], 1.12e+06 s^-1M^-1; in the series with Ac-PRTK-ACC [4] it was 780000 s^-1M^-1. Besides, the “cleavage of the fluorogenic substrate (fluorescence, excitation 355 nm, emission 460 nm)” value in [1] is on record as “Ac-PRNK-ACC (SEQ. ID. NO: 12) is a specific substrate for tryptase in relation to other blood borne serine proteases”. Further, the “preference over Ac-PRTK-ACC (kcat/Km)” value in series [1] was “A minimal preference, approximately 2-fold, for P2-asparagine over P2-threonine was seen for both enzymes”. Moreover, the Km (commonly the concentration of substrate that gives half-maximal velocity) in the series on Ac-PANK-ACC [5] turned out to be 133 µM; in series [6] it was 14.5 µM; with Ac-PRNR-ACC [7], 18.6 µM; with Ac-PRTK-ACC [8] it was 23.4 µM.

Regarding recombinant human βII-tryptase, the Km stood at 110 µM in the series on Ac-PANK-ACC [9], 8.9 µM in series [10], 16.5 µM with Ac-PRNR-ACC [11] and 14.7 µM in the series with Ac-PRTK-ACC [12]. Besides, the kcat with Ac-PANK-ACC [2] came to 20.3 s⁻¹; in series [1], 16.8 s⁻¹; in the series with Ac-PRNR-ACC [3], 21.8 s⁻¹; in the series on Ac-PRTK-ACC [4] it was 18.7 s⁻¹. For the same substance, the kcat/km (s^-1M^-1) worked out at 180000 s^-1M^-1 in the series with Ac-PANK-ACC [2], 1.89e+06 s^-1M^-1 in series [1], 1.31e+06 s^-1M^-1 in the series with Ac-PRNR-ACC [3] and 1.27e+06 s^-1M^-1 with Ac-PRTK-ACC [4]. For the same substance, the “preference over Ac-PANK-ACC (kcat/Km)” value in [1] is “an approximately 10-fold preference for Ac-PRNK-ACC (SEQ. ID. NO: 12) over Ac-PANK-ACC”. For the same substance, the “preference over Ac-PRTK-ACC (kcat/Km)” value in [1] was “A minimal preference, approximately 2-fold, for P2-asparagine over P2-threonine was seen for both enzymes”. Besides, the “activity relative to Ac-PRNK-ACC (kcat/Km)” value in the series with Ac-PRNR-ACC [3] was “about 70-90% of the activity of Ac-PRNK-ACC”.
